One test deals with PD-L1 (human) (UniProt Q9NZQ7). Put plainly: flow cytometry on HEK293 cells transfected with PD-L1. (In general: Flow cytometry measures light scatter and fluorescence of single cells or particles in a stream.)
The target of the next test is CTLA4 (human) (UniProt P16410). In words: flow cytometry on HEK293 cells transfected with CTLA4.
Test [1] has as its target human CD28, full length, on transfected HEK293 cells (human) (UniProt P10747). In words: flow cytometry, Fc fusion at 66.6 nM on HEK293 cells transfected with CD28.
Test [2] deals with human PD-L1, full length, on transfected HEK293 cells (human) (UniProt Q9NZQ7). In words: flow cytometry, Fc fusion at 22.2 nM on HEK293 cells transfected with PD-L1.
human PD-L1, full length, on transfected HEK293 cells (human), sequence (Q9NZQ7 19-290 limits assumed): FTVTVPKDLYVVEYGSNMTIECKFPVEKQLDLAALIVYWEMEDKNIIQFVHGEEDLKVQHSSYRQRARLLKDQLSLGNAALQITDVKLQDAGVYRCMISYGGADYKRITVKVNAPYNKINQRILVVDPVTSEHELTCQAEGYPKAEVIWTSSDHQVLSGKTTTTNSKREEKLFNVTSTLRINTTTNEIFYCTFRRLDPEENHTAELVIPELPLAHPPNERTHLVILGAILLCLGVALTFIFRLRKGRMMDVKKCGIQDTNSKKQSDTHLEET
In test [3] the target is human CD28, full-length, expressed on transfected Expi293 cells (human) (UniProt P10747). Put plainly: flow cytometry on CD28-expressing Expi293 cells.
Test [4] concerns the target T1, human CD226, full length, expressed on transfected cells (human) (UniProt Q15762).
T1 sequence: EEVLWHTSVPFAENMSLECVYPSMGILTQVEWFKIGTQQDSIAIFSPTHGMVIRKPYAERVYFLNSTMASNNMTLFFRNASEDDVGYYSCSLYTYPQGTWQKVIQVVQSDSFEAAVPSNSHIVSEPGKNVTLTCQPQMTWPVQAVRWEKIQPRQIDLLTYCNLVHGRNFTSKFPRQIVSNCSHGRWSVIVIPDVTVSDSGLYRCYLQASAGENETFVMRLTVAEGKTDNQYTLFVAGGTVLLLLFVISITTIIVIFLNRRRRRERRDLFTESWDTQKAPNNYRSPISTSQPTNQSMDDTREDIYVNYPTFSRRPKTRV
Put plainly: flow cytometry on transfected cells.

The target in test [5] is T2, human TIGIT, full length, expressed on transfected cells (human) (UniProt Q495A1).
T2 sequence: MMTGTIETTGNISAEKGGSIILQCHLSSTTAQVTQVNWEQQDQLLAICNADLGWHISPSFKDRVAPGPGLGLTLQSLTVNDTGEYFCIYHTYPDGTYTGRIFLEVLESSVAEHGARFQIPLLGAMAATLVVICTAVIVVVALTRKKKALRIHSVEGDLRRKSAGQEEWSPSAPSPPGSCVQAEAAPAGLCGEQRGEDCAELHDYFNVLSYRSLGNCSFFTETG
Put plainly: flow cytometry on transfected cells.

Test [6] deals with CD112R, expressed on transfected cells (human) (UniProt Q6DKI7). In words: flow cytometry on transfected cells.
CD112R, expressed on transfected cells (human), sequence (Q6DKI7 whole entry): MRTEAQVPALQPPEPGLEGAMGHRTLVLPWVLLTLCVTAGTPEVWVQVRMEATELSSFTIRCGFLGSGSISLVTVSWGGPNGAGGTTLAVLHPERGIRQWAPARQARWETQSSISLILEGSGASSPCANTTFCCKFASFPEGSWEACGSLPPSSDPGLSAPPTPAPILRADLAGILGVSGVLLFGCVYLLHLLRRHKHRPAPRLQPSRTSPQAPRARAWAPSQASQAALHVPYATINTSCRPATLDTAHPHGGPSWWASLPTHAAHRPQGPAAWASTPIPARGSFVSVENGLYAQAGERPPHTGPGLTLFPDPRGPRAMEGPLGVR
Test [7] concerns the target CD96, expressed on transfected cells (UniProt P40200). In words: flow cytometry on transfected cells.

The values below come from patent publication US20200040059A1.

“And” between values parts separate entries of the source, which are not always exact repeats. Identical values can stand only once.

wild-type CD155 IgV-Fc, sequence (P15151 24-139 limits assumed): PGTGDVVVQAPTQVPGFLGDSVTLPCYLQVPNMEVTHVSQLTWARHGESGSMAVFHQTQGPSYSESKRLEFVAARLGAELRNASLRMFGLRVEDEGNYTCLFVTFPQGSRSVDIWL
CTLA4 (human), sequence (P16410 36-223 limits assumed): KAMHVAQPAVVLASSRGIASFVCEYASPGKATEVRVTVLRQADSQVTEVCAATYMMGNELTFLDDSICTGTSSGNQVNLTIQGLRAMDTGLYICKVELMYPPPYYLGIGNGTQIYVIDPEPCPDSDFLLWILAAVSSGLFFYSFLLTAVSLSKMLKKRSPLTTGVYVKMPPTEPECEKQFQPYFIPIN
PD-L1 (human), sequence (Q9NZQ7 19-290 limits assumed): as the sequence (Q9NZQ7 19-290 limits assumed) above

On to “CD80 IgV-Fc E35D/M47I (from UniProt P33681 35-141) (Fc fusion)”, for which the MFI at 22.2 nM with PD-L1 (human) was found to be 150000 MFI. This substance also displayed an MFI at 66.6 nM in the test with CTLA4 (human) of 354000 MFI.
The corresponding values for “CD80 IgV-Fc L70P/F92S (from UniProt P33681 35-141) (Fc fusion)” are 6170 MFI and 4040 MFI.
For “CD80 IgV-Fc M43I/C82R (from UniProt P33681 35-141) (Fc fusion)” the same measures were 7400 MFI and 3640 MFI.
In turn, “CD80 IgV-Fc M47L/V68A (from UniProt P33681 35-141) (Fc fusion)” gave an MFI at 66.6 nM with CTLA4 (human) of 74200 MFI.
For the substance “CD80 IgV-Fc N55D/K86M (from UniProt P33681 35-141) (Fc fusion)”, the MFI at 22.2 nM with PD-L1 (human) was 5090 MFI. This substance also registered an MFI at 66.6 nM in the test with CTLA4 (human) of 3540 MFI.
“CD80 IgV-Fc V22L/M38V/M47T/A71D/L85M (from UniProt P33681 35-141) (Fc fusion)” came in with an MFI at 22.2 nM with PD-L1 (human) of 6140 MFI. The MFI at 66.6 nM with CTLA4 (human) amounted to 175000 MFI.
Turning to “CD80 variant IgV-Fc E35D/M43I/A71D (from UniProt P33681 35-141) (Fc fusion)”, the MFI at 66.6 nM in test [1] was 6370 MFI. The same substance displayed an MFI at 22.2 nM in test [2] of 27300 MFI.
“CD80 variant IgV-Fc E35G/K54E/A71D/L72P (from UniProt P33681 35-141) (Fc fusion)” returned an MFI at 66.6 nM in test [1] of 3700 MFI. In test [2], the MFI at 22.2 nM was found to be 1580 MFI.
Regarding “CD80 variant IgV-Fc H18Y/A71D/L72P/E88V (from UniProt P33681 35-141) (Fc fusion)”, in test [1], the MFI at 66.6 nM is 8860 MFI. This substance registered an MFI at 22.2 nM in [2] of 1080 MFI.
As for “CD80 variant IgV-Fc T13R/M42V/M47I/A71D (from UniProt P33681 35-141) (Fc fusion)”, the MFI at 66.6 nM in test [1] came to 16700 MFI. The substance further yielded an MFI at 22.2 nM in test [2] of 1870 MFI.
The corresponding values for “CD80 variant IgV-Fc V20I/M47V/A71D (from UniProt P33681 35-141) (Fc fusion)” are 15100 MFI and 9710 MFI.
“CD80 variant IgV-Fc V22L/E35G/A71D/L72P (from UniProt P33681 35-141) (Fc fusion)” returned an MFI at 66.6 nM in test [1] of 8150 MFI. In [2], this substance returned an MFI at 22.2 nM of 1400 MFI.
For “CD80 variant IgV-Fc Y31H/E35D/T41S/V68L/K93R/R94W (from UniProt P33681 35-141) (Fc fusion)” the same measures were 2450 MFI and 18900 MFI.
In turn, “CD80 variant M38V/T41D/M43I/W50G/D76G/V83A/K89E/T120S/T130A ECD-Fc fusion (from UniProt P33681 35-242)” gave an MFI in test [3] of 5 MFI.
As for “CD155 variant L104E IgV-Fc (from UniProt P15151 24-139) (Fc fusion)”, the MFI at 100 nM was 2260 in test [4], 3140 in test [5], 1800 in test [6] and 1560 in test [7].
“CD155 variant L104Q IgV-Fc (from UniProt P15151 24-139) (Fc fusion)”: the MFI at 100 nM in test [4] amounted to 3790; in [5], 10300; in [6] it was 2120; in test [7] it was 1540.
For “CD155 variant Q62F IgV-Fc (from UniProt P15151 24-139) (Fc fusion)” the same measures were 2570, 2210, 2710 and 2760.
The corresponding values for “CD155 variant Q62Y IgV-Fc (from UniProt P15151 24-139) (Fc fusion)” are 2620, 2530, 1920 and 1830.
Consider “CD155 variant S42A, S52L, L104E, G111R IgV-Fc (from UniProt P15151 24-139) (Fc fusion)”, for which the MFI at 100 nM in test [4] was 1890; in test [5], 2260.
“CD155 variant S42G IgV-Fc (from UniProt P15151 24-139) (Fc fusion)”: the MFI at 100 nM was found to be 2450 in test [4], 4840 in [5], 1820 in test [6] and 1700 in [7].
For “CD155 variant S42N, L104Q, G111R IgV-Fc (from UniProt P15151 24-139) (Fc fusion)” the same measures were 2310, 2430, 1850 and 1960.
In the case of “CD155 variant S42N, S52Q, Q62F IgV-Fc (from UniProt P15151 24-139) (Fc fusion)”, the MFI at 100 nM came out at 2150 in test [4], 2400 in [5], 1860 in test [6] and 1740 in test [7].
Consider “CD155 variant S42W IgV-Fc (from UniProt P15151 24-139) (Fc fusion)”, for which the MFI at 100 nM in test [4] stood at 2130; in test [5], 2430; in test [6], 2330; in [7] it was 2560.
The corresponding values for “CD155 variant S52E IgV-Fc (from UniProt P15151 24-139) (Fc fusion)” are 2600, 2660, 1900 and 1800.
For “CD155 variant S52L IgV-Fc (from UniProt P15151 24-139) (Fc fusion)” the same measures were 2680, 2220, 2040 and 2040.
Consider “CD155 variant S52L, L104E IgV-Fc (from UniProt P15151 24-139) (Fc fusion)”, for which the figures for the MFI at 100 nM in test [4], in test [5] and in test [7] were 2210, 4320 and 1830, respectively.
For the substance “CD155 variant S52M, L104Q IgV-Fc (from UniProt P15151 24-139) (Fc fusion)”, the MFI at 100 nM in [4] was 2250; in test [5], 2670; in test [6], 1710; in [7], 1630.
Turning to “CD155 variant S52Q IgV-Fc (from UniProt P15151 24-139) (Fc fusion)”, the MFI at 100 nM stood at 2020 in test [4], 2290 in test [5], 1790 in test [6] and 1820 in test [7].
Turning to “CD155 variant S52R IgV-Fc (from UniProt P15151 24-139) (Fc fusion)”, the MFI at 100 nM in test [5] turned out to be 4400; in [6] it was 2740; in [7], 4850.
Consider “CD155 variant S52R, Q62F, L104Q, G111R IgV-Fc (from UniProt P15151 24-139) (Fc fusion)”, for which the MFI at 100 nM in test [4] was found to be 3170; in test [5], 2970; in test [6], 1730; in test [7] it was 2360.
For the substance “CD155 variant T45Q, S52L, L104E, G111R IgV-Fc (from UniProt P15151 24-139) (Fc fusion)”, the MFI at 100 nM in [4] came to 2390; in test [5], 2290; in test [6] it was 1740; in [7], 1580.
For the substance “CD155 variant T45Q, S52L, V57L, L104E IgV-Fc (from UniProt P15151 24-139) (Fc fusion)”, the MFI at 100 nM in [4] was 5940; in [5], 2860; in test [6], 1500; in [7], 1530.
The corresponding values for “CD155 variant T45Q, S52Q IgV-Fc (from UniProt P15151 24-139) (Fc fusion)” are 5790, 4810, 1770 and 2450.
Turning to “CD155 variant T45Q, S52R, G111R IgV-Fc (from UniProt P15151 24-139) (Fc fusion)”, the MFI at 100 nM turned out to be 2080 in test [4], 4090 in test [5], 1790 in [6] and 2340 in test [7].
For the substance “ICOSL variant N52S/S130G/Y152C ECD-Fc fusion (from UniProt O75144 19-256)”, the MFI in [3] came out at 24 MFI.
Consider “wild-type CD155 IgV-Fc (from UniProt P15151 24-139) (Fc fusion)”, for which the MFI at 100 nM in [4] was 2320 and 2370 and 4690; in test [5], 2180 and 4690; in [6], 2170 and 1740 and 2940; in test [7] it was 1890 and 1680 and 3270.
